Target: T1, decoration protein pb10 of bacteriophage T5, full length (bacteriophage T5, UniProt Q6QGD6 1-164)
T1 construct: Cloned in pET28b; also called native pb10; unmodified pb10; source: E. coli BL21 (DE3), purified (HisTrap FF, HiTrap SP, Superdex 75)
T1 sequence (looked up): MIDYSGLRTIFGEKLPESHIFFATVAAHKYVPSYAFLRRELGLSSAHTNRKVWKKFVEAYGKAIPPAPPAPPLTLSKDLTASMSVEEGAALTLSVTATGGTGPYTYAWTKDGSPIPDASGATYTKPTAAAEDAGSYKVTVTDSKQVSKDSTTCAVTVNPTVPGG
Assay: SPR; T5 CLPs captured on a CM5 chip through covalently coupled rabbit polyclonal anti-capsid antibodies (about 900 RU); pb10 or chimeras injected at 0.25-4 nM for 200 s at 50 µL/min; 25 °C; PBS with 0.05% Tween 20 and 1 mg/mL BSA; simple Langmuir model
Details: both partners purified

B1: bacteriophage T5 capsid-like particles (T5 CLPs) (complex)
chain: AVNQSSSVEVSSESYETIFSQRIIRDLQKELVVGALFEELPMSSKILTMLVEPDAGKATWVAASTYGTDTTTGEEVKGALKEIHFSTYKLAAKSFITDETEEDAIFSLLPLLRKRLIEAHAVSIEEAFMTGDGSGKPKGLLTLASEDSAKVVTEAKADGSVLVTAKTISKLRRKLGRHGLKLSKLVLIVSMDAYYDLLEDEEWQDVAQVGNDSVKLQGQVGRIYGLPVVVSEYFPAKANSAEFAVIVYKDNFVMPRQRAVTVERERQAGKQRDAYYVTQRVNLQRYFANGVVSGTYAAS
modifications: DNA-free expanded capsid lacking pb10 (T5 dec deletion, stAmN5). Mature pb8 after removal of the scaffolding domain; limits from the UniProt chain feature, matching the 299 aa entity of PDB 6OMC/6OMA.
B1 gave a Kd of 1.5 to 2.3 pM.

From publication PMC10766600, “Antigen self-anchoring onto bacteriophage T5 capsid-like particles for vaccine design” (NPJ Vaccines, 2024)
